“And” between values parts separate entries of the source, which are not always exact repeats. Equal entries are not always repeated.
Target: T1, Human LAG-3 on cells (human LAG-3 expressing EL4 cells; activated human CD3+ T cells) (human, UniProt P18627 23-525)
T1 sequence (looked up): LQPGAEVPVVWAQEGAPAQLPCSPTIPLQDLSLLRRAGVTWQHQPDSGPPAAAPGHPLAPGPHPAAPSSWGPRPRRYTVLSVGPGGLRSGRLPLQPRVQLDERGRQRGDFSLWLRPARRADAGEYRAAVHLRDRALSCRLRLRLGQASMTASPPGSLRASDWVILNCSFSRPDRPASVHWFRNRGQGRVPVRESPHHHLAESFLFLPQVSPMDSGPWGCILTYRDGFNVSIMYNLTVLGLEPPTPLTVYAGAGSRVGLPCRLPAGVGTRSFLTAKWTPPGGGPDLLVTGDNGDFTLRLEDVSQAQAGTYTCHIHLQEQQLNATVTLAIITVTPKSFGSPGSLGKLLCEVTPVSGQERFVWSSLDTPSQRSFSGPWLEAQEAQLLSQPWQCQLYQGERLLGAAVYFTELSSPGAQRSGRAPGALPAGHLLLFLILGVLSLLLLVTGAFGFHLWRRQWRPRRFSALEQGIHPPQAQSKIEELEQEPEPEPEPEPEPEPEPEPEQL
Assay: cell-based or functional assay

EC50 of depletion of antigen specific CD4 T cells by ADCC (primary human T cells, autologous NK cells, 18 h): 14 µg/mL and 3.4 ng/mL
EC50 of depletion of antigen specific LAG-3 positive CD8 T cells by ADCC: 122 µg/mL and 0.0175 µg/mL
B1: H5L7BW (antibody, human IgG1, kappa)
heavy: not shown
light: DIQMTQSPSSLSASVGDRVTITCKSSQSLLNPSNQKNYLAWYQQKPGKAPKLLVYFASTRDSGVPSRFSGSGSGTDFTLTISSLQPEDFATYYCLQHFGTPPTFGQGTKLEIKRTVAAPSVFIFPPSDEQLKSGTASVVCLLNNFYPREAKVQWKVDNALQSGNSQESVTEQDSKDSTYSLSSTLTLSKADYEKHKVYACEVTHQGLSSPVTKSFNRGEC
modifications: afucosylated: no fucose on the core carbohydrate structure attached to Asn297
notes: Same plasmids as H5L7, expressed in the BioWa POTELLIGENT (FUT8 knock-out CHO) cell line; also called afucosylated antibody H5L7BW; afucosylated H5L7

Source: patent publication US20160017037A1 (GlaxoSmithKline, published 2016)
